B1: NOXA75–93 L78F 75-93, Q9JM54 (peptide)
chain: CAQFRRIGDKVNLRQKLLN
B2: NOXA75–93 L78Y 75-93, Q9JM54 (peptide)
chain: CAQYRRIGDKVNLRQKLLN
B3: NOXA75–93 L78W 75-93, Q9JM54 (peptide)
chain: CAQWRRIGDKVNLRQKLLN
B4: NOXA75–93 V85F 75-93, Q9JM54 (peptide)
chain: CAQLRRIGDKFNLRQKLLN

Columns and labels:
[1] = molecular target: MCL-1 (Homo sapiens), Q07820; assay: ITC; settings: modification not given
[2] = molecular target: MCL-1 (Homo sapiens), Q07820; assay: fluorescence anisotropy competition; settings: modification not given

Chain of MCL-1 (Homo sapiens), Q07820 (Q07820 whole entry): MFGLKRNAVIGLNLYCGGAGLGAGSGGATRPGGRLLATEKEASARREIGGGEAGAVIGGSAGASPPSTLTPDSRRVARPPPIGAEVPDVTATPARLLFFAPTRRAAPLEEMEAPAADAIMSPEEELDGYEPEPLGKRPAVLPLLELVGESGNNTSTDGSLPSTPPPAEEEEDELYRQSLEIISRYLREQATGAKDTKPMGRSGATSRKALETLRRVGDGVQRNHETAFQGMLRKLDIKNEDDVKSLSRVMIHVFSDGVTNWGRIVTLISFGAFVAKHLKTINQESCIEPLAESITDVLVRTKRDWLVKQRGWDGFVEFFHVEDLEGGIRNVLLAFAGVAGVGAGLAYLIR

Row | Binder | Kd [1] [nM] | IC50 [2] [nM]
1 | B1 | 1700 | 2700
2 | B2 |  | > 100000
3 | B3 | 2400 | 2200
4 | B4 | 800 | > 20000
